# Earlier results, collected in article PMC10650157.
# Columns and labels:
# [1] = molecular target: apo-lactoferrin (Homo sapiens) (UniProt P02788)
# [2] = molecular target: apo-transferrin (Homo sapiens) (UniProt P02787)
# UniProt P02787, sequence (P02787 20-698): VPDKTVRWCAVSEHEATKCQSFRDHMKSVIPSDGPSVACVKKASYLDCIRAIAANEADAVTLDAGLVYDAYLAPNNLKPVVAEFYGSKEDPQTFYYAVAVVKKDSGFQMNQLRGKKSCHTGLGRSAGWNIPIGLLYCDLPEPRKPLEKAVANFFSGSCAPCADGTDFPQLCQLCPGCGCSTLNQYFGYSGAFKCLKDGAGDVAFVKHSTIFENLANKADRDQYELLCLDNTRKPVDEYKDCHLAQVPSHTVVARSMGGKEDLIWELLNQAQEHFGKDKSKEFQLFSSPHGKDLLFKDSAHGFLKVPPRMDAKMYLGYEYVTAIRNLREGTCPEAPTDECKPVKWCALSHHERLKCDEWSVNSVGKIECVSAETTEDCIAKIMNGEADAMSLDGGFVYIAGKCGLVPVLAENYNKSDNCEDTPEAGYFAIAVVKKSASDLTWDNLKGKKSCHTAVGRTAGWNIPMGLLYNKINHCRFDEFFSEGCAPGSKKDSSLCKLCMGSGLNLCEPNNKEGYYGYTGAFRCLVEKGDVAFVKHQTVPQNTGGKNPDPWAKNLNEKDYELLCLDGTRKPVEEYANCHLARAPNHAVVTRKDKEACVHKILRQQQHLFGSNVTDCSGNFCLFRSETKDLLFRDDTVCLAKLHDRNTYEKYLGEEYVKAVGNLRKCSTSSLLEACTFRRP
# UniProt P02788, sequence (P02788 20-710): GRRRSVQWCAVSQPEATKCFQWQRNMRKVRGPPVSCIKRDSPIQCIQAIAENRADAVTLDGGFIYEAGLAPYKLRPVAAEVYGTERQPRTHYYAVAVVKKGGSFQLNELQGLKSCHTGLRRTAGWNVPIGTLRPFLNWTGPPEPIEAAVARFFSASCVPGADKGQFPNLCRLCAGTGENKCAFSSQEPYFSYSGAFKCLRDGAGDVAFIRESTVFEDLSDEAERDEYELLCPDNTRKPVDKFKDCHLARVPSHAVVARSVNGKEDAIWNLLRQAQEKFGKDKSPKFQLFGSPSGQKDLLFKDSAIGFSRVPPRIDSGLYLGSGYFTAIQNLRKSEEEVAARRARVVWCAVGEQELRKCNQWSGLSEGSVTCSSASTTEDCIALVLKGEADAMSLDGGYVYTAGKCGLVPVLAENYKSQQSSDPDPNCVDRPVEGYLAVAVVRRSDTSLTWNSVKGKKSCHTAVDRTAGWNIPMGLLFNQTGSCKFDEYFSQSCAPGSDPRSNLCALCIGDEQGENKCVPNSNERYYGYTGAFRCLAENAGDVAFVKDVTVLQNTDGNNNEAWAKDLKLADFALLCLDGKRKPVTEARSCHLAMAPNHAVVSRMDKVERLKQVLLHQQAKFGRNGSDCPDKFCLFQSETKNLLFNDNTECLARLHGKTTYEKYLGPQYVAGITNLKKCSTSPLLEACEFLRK
substance,measurement,setting,value
Ceruloplasmin (from UniProt P00450),Kd,[1],7.4 µM
same,Kd,[2],51.3 µM
